Assay results taken from patent US7119183.

Molecular target: human CDw32 antigen (IgG Fc receptor) (human) (UniProt P12318)
Test: indirect immunofluorescence on CDw32-transfected COS cells

UniProt P12318, sequence (P12318 34-317 H167R limits assumed, form in doubt): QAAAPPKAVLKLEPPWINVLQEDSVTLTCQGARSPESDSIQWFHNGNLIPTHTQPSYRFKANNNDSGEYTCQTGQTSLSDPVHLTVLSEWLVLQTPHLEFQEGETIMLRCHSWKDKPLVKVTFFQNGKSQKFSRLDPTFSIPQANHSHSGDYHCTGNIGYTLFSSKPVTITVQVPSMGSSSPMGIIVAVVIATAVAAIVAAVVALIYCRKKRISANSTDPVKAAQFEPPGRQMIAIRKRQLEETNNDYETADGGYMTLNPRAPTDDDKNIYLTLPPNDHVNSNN

Kd | Substance
100 nM | human IgG (antibody)
100 nM | mouse IgG (antibody)
